Results reported in patent publication US20080299228A1, “TOPICAL COMPOSITIONS COMPRISING A MACROMOLECULE AND METHODS OF USING SAME” (priority 2007, published 2008).
No end group written: not given here. *: point of attachment. 125I = [125I]*

Key:
[1] = Percutaneous absorption of 125I macromolecules, in vitro cadaver skin finite dose technique; type: in vitro ADME, human; conditions: for Total Absorption / Dermis / Epidermis / Stratum Corneum / Surface Wash: 48 hours
Excerpt: Radiolabeled Bovine Serum Albumin was acquired from American Radiolabeled Chemicals (St. Louis, Mo.) as ARI 0112 Albumin (bovine serum) [I^125] with a specific activity of 204 Ci/mmol (Lot number 080372). Radiolabeled Epidermal Growth Factor (murine) and Somatastatin were acquired from Perkin Elmer Life and Analytical Sciences (Boston, Mass.) as [^125I]-Epidermal Growth Factor (murine) and [^125I]Tyr11-Somatostatin 14 with specific activities of 2200 Ci/mmol (Lot number CC41180) and 2200 Ci/mmol (Lot number JX32880), respectively. Each stock isotope was either provided as, or reconstituted into 12.5 μL of distilled de-ionized water. This volume was added to 500 μL of the provided test formulations and mixed for uniformity. Replicate assessments were made from each final mixture to determine specific activity.
Skin Preparation. Percutaneous absorption was measured using the in vitro cadaver skin finite dose technique. Ex vivo human trunk skin without obvious signs of skin disease, obtained within 24-48 hours of death, was used in this study. Skin was dermatomed, prepared for cryopreservation, sealed in a water impermeable plastic bag, and stored at <−70° C. until the day of the experiment. Prior to use, it was thawed in ˜37° C. water, then rinsed in water to remove any adherent blood or other material from the surface.
Skin from a single donor was cut into multiple smaller sections large enough to fit on static 1.0 cm^2 Franz diffusion cells (see FIG. 6). The dermal chamber was filled to capacity with a reservoir solution of phosphate-buffered isotonic saline (PBS), pH 7.4±0.1, and the epidermal cell (chimney) left open to ambient laboratory conditions. All cells were mounted in a diffusion apparatus in which the dermal bathing solution was stirred magnetically at approximately 600 RPM and the skin surface temperature maintained at 32.0° C.±1.0° C.
To assure the integrity of each skin section, its permeability to tritiated water was determined before application of the test products. Following a brief (0.5-1 hour) equilibrium period, ^3H2O (NEN, Boston, Mass., sp. Act. ˜0.5 μCi/mL) was layered across the top of the skin by dropper so that the entire exposed surface was covered (approximately 250-500 μL). After 5 minutes the ^3H2O aqueous layer was removed. At 30 minutes the receptor solution was collected and analyzed for radioactive content by liquid scintillation counting. Skin specimens in which absorption of ^3H2O was less than 1.56 μL-equ/cm^2 were considered acceptable.
Dosing and Sample Collection. Just prior to dosing, the reservoir solution was replaced with a fresh solution of 1× PBS and a pre-dose sample taken for analysis. The chimney was removed from the Franz Cell to allow full access to the epidermal surface of the skin. All formulations were then applied to the skin sections using a positive displacement pipette set to deliver 5 μL formulation/cm^2. The dose was spread across the surface with the Teflon® tip of the pipette. Five to ten minutes after application, the chimney portion of the Franz Cell was replaced. At pre-selected times after dosing (1, 2, 4, 8, 12, 24, 32, and 48 hours) the reservoir solution was removed in its entirety, replaced with fresh reservoir solution, and a predetermined volume aliquot saved for subsequent analysis.
After the last sample was collected, the surfaces were washed twice (0.5 mL volume each) with 1× PBS to collect un-absorbed formulation from the surface of the skin. Following the wash, the skin was tape stripped a sufficient number of times to collect the stratum corneum. The skin was then removed from the chamber and split into epidermis and dermis. All skin sections were dissolved overnight in Soluene-350® (Perkin Elmer).
Analytical Methods. Analysis of all formulations was by liquid scintillation counting. One-milliliter volumes of each receptor solution and each surface wash received 5-6 mL scintillation fluid or as needed. […]

[2] = Effect of process parameters and excipients on rehydration time of lyophilized HEC gel; type: physicochemical; set-up: key: ✓: Additives that had a positive effect (i.e., reduction in hydration time) have a check mark beside them; conditions: additive screening
Procedure: Preliminary studies on rehydration time used water (see Table 13). Rehydration in 12% hexylene glycol, a humectant, decreased the rehydration time for a HEC 250HX lyophilized cake down to 20-30 minutes. Further experiments used 12% hexylene glycol for rehydration.
The freezing rate for lyophilized products can affect the cake structure. Freezing at −20° C. was the standard procedure used in this study. To investigate the effect of a faster freezing rate, samples were frozen in a dry ice/ethanol bath at −48° C.
Samples from both freezing methods were lyophilized. During the lyophilization process, all samples from the ice bath freezing collapsed into dense cakes. During rehydration, the ice bath frozen cakes were much slower to form gels. It took at least 1 hour to rehydrate the ice bath frozen cakes.
HEC 250HX gels at 1.125 and 2.25% polymer were prepared. The latter gel was more viscous than the former due to the higher polymer concentration. After freeze drying, cakes from both products were rehydrated so that the final polymer concentration was 1.125%. The lyophilized gels prepared with the more concentrated polymer solution required approximately 15-20 minutes longer to rehydrate than the more dilute formulation. The higher density of the concentrated polymer cake was likely a factor in the longer rehydration time.
Additives with a wide range of physical properties were screened to evaluate their effect on rehydration time for a lyophilized 1.125% HEC 250HX gel. The chemical classes included in this screen were polymers, surfactants, amino acids, colloidal powders, and salts. All additives were crystalline at room temperature. The use of amorphous excipients could lead to melting/cake collapse at elevated temperature. When evaluating chemical classes, priority was given to those included in the IIG for topicals. Excipients shown to be physically and/or chemically incompatible with PTH(1-34) were excluded (4). Salts containing polyvalent anions were also excluded to avoid the potential for precipitating PTH(1-34).
“Powdered” solid formulations were also evaluated. […]

[3] = type: physicochemical
Procedure: All excipients for the room temperature gel formulations met USP/NF monographs. Reagents for analysis were HPLC and/or ACS grade and nitrogen was ultra high purity (>99.999%). PTH(1-34) was supplied by Neo-MPS. Reverse phase HPLC RP-HPLC analysis of reconstituted gels/solutions was performed according to standard methods.
At each time point, two assays were performed on each formulation.
Before preparing larger batches for longer term stability studies, three pilot batches were prepared on the 10 g scale to assess the solid product's stability. The batches included either PTH(1-34) plus HEC, PTH(1-34) plus HEC in 1.0% mannitol and PTH(1-34) plus HEC in 1.0% lactose. The lyophilized gels were prepared according to the method of Example 8. Stability was assayed according to by HPLC.
The PTH(1-34) formulations that included HEC in 1.0% mannitol and HEC alone were prepared on a larger scale for use in a long-term stability analysis. In addition to these two lyophilized gel formulations, neat PTH(1-34), i.e., PTH powder, was also filled into vials (purged with nitrogen).
PTH was assayed by HPLC analysis of reconstituted gels/solutions. The samples were assayed before storage, stored at 40° C. and assayed at 1, 3, and 6 months after storage. At each time point, 2 assays were performed on each formulation. […]

[4] = Rehydration time of lyophilized polymer gels; type: physicochemical; conditions: xanthan gum, carrageenan
Procedure: Lyophilized gels were prepared by slowing adding the polymer to water with stirring. For gels with methylcellulose or hydroxypropylcellulose, the polymer was added to hot water and the product was cooled with stirring. The gels took between 1-3 hours to reach maximum viscosity. All gels were allowed to stand for at least 12 hours before any additional processing. If PTH(1-34) was included in the formulation, the peptide was added to an aliquot of gel and gently stirred for 10 minutes.
Prior to lyophilization, gels were filled into Type I glass vials and frozen. Freezing was performed on a freezer shelf (−20° C.) or in a dry ice/ethanol bath (˜−48° C.). The lyophilizer (Ultra-dry Labtop, Freezedry Specialties, Inc) was equipped with a condenser (−50° C.) and an ultra high vacuum pump (DUO 2.5, Pfeiffer Vacuum, Inc) to provide optimal conditions for sublimating the frozen water. No heating or cooling was applied to the lyophilizer shelf. Vials containing lyophilized gels with PTH(1-34) were purged with nitrogen before stoppering (Teflon coated butyl rubber) and sealing (aluminum crimp seal).
A panel of lyophilized polymer gel was screened for the capacity to reform gels following rehydration. […]

[5] = 0.5 hr (midpoint), Mean ± SE, n = 3 Donors
[6] = 28.0 hr (midpoint), Mean ± SE, zeros below LLOQ
[7] = percent of applied dose, Mean ± SE

Molecule | Mean Flux [1, 5] [ng/cm^2/hr] | Mean Flux ([1]; 1.5 hr (midpoint), Mean ± SE) [ng/cm^2/hr] | Mean Flux ([1]; 3.0 hr (midpoint), Mean ± SE) [ng/cm^2/hr] | Mean Flux ([1]; 6.0 hr (midpoint), Mean ± SE) [ng/cm^2/hr] | Mean Flux ([1]; 10.0 hr (midpoint), Mean ± SE) [ng/cm^2/hr] | Mean Flux ([1]; 18.0 hr (midpoint), Mean ± SE) [ng/cm^2/hr] | Mean Flux [1, 6] [ng/cm^2/hr] | Mean Flux ([1]; 40.0 hr (midpoint), Mean ± SE) [ng/cm^2/hr] | Total Absorption ([1]; single application, Mean ± SE) [µg] | Dermis ([1]; Mean ± SE) [µg] | Epidermis ([1]; Mean ± SE) [µg] | Stratum Corneum ([1]; Mean ± SE) [µg] | Surface Wash ([1]; Mean ± SE) [µg] | Dermis ([1]; percent of applied dose) [%] | Epidermis ([1]; percent of applied dose) [%] | Stratum Corneum ([1]; percent of applied dose) [%] | Surface Wash ([1]; percent of applied dose) [%] | Total Absorption [1, 7] [%] | effect of additive on hydration time of lyophilized 1.125% HEC 250 HX gel [2] | further results
Somatostatin: [125I]Tyr11-Somatostatin 14 in HEC gel, 1.0 mg/mL (AGCKNFFWKTY(125I)TSC; ends and bridges not checked; UniProt P61278 103-116, looked up, variant F11Y) | 8.09 ± 3.68 | 2.14 ± 1.89 | 0.54 ± 1.89 | 0.22 ± 0.20 | 0.11 ± 0.05 | 0.02 ± 0.02 | 0.00 ± 0.00 | 0.01 ± 0.00 | 0.013 ± 0.007 | 0.118 ± 0.008 | 0.180 ± 0.010 | 0.190 ± 0.009 | 4.561 ± 0.118 | 2.410 ± 0.169 | 3.697 ± 0.200 | 3.886 ± 0.180 | 93.493 ± 2.412 | 0.234 ± 0.149 | – | –
Epidermal Growth Factor: [125I]-Epidermal Growth Factor (murine) in HEC gel, 0.1 mg/mL | 0.40 ± 0.21 | 0.11 ± 0.08 | 0.07 ± 0.06 | 0.04 ± 0.02 | 0.09 ± 0.06 | 0.01 ± 0.01 | 0.00 ± 0.00 | 0.01 ± 0.00 | 0.001 ± 0.000 | 0.008 ± 0.002 | 0.013 ± 0.001 | 0.014 ± 0.001 | 0.479 ± 0.005 | 1.629 ± 10.311 | 2.646 ± 0.242 | 2.773 ± 0.131 | 98.145 ± 1.046 | 0.278 ± 0.095 | – | –
[Cl-].[Na+] [Sodium Chloride] | – | – | – | – | – | – | – | – | – | – | – | – | – | – | – | – | – | – | Sodium Chloride✓ | –
Bovine Serum Albumin: [125I] bovine serum albumin in HEC gel, 1.0 mg/mL | 4.69 ± 3.93 | 1.04 ± 1.04 | 0.71 ± 0.43 | 0.26 ± 0.12 | 0.05 ± 0.05 | 0.04 ± 0.04 | 0.02 ± 0.02 | 0.06 ± 0.03 | 0.010 ± 0.007 | 0.079 ± 0.024 | 0.423 ± 0.060 | 0.616 ± 0.157 | 3.788 ± 0.357 | 1.607 ± 0.487 | 8.610 ± 1.230 | 12.552 ± 3.202 | 77.182 ± 7.273 | 0.205 ± 0.148 | – | –
XF15//339006-2: Neat PTH(1-34) from Neo-MPS, lyophilized powder, vials purged with nitrogen | – | – | – | – | – | – | – | – | – | – | – | – | – | – | – | – | – | – | – | degradation (in words) [3]: significant degradation; reduction of PTH(1-34) assay ([3]; six months of storage at 40° C.): ~25%
[Cl-].[K+] [Potassium Chloride] | – | – | – | – | – | – | – | – | – | – | – | – | – | – | – | – | – | – | Potassium Chloride✓ | –
PTH(1-34): parathyroid hormone fragment 1-34, supplied by Neo-MPS | – | – | – | – | – | – | – | – | – | – | – | – | – | – | – | – | – | – | – | compatibility with anionic polymers [4]: not compatible with anionic polymers
CC(O)C(=O)[O-].[Na+] (stereo not drawn) [Sodium Lactate] | – | – | – | – | – | – | – | – | – | – | – | – | – | – | – | – | – | – | Sodium Lactate✓ | –
